Test results from paper PMC8596708.

Substrate: CNC(=O)Oc1ccc2[nH]cc(CCNC(C)=O)c2c1
Test: MTase-Glo bioluminescence assay
Type: biochemical, Streptomyces griseofuscus
Conditions: […] SAM; optimized conditions ([…] °C, pH […] KPi stated as optimum)

B1: PsmD (Streptomyces griseofuscus) (protein)
chain: MMQGQPHQDAGMPEPYAATADVYDRLVDYAIAEWGECPRPQMADFVEQAWAARGHRVRRVLELCCGTGLMTEQLVRRGYEVTAVDRSETMLALAKQRVGGAADFHQIELPAPLPDGADAVVCTAAAFNYQASARSLGETLRAVATVLPAGATFVFDIETAALLKGHWGNRVWAADEGDLAFIWDFTSEPDTTYCDVHYTQFTRHEAGADAYTGVREVHRLYAFDHDTVRAQARAAGFAQAEVFDNYTERPATDTTRYETWVLTRDER
B1 was tested. Which Km did it give?
The Km was 11.3 µM.
